This experiment concerns the target CD3 on Jurkat cells (Jurkat靶标细胞) (UniProt P07766). Nature of the experiment: flow cytometry, culture supernatant on Jurkat cells (negative control; TG1 background 132.03).

Drawing on CN106117361A, this text covers 结合MFI for 1 substance.

UniProt P07766, sequence (P07766 23-207): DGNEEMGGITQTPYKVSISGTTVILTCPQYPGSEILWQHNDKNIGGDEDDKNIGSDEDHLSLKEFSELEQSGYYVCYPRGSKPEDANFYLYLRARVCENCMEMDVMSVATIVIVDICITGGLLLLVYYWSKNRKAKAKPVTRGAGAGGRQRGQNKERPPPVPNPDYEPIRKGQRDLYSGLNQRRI

NC-sdAb(相同形式的非相关性sdAb) (VHH) had a 结合MFI of 115 MFI.
